{"source": "paper PMC6273887", "about": "“cDNA Isolation and Functional Characterization of UDP-D-glucuronic Acid 4-Epimerase Family from Ornithogalum caudatum” (Molecules, 2016)", "substrate": "O=C(O)[C@H]1O[C@H](OP(=O)(O)OP(=O)(O)OC[C@H]2O[C@@H](n3ccc(=O)[nH]c3=O)[C@H](O)[C@@H]2O)[C@H](O)[C@@H](O)[C@@H]1O", "test": "HPLC of UDP-GalA formation, Lineweaver-Burk plot", "type": "biochemical, Albuca bracteata", "settings": "100 mM PBS, pH 7.8, 37 °C, 20 min, 0.156-10 mM UDP-GlcA, unpurified Pichia supernatant, substrate misprinted UDP-D-Glc, UDP-GlcA in b32 and b56", "data": [{"protein": "OcUGlcAE3 (Albuca bracteata) (protein, full-length ORF (1389 bp); 12,000 g/160,000 g lysate supernatant, unpurified) MDAMISPSTPGKFKPEKPHHHLHHHHHRPLFRLQHSPLFKCGLIVVCASVVVVLLLCLAPSHPSSSSSSSSSPFAASRIERRSLSASSSSSWGGAEWEKRVRYSARIRRVGGFSVLVTGAGGFVGTHVSAALKRRGDGVLGLDCFNDYYEPSLKRARQALLDRIGVFVVEGDINDGPLLRKLFDVVPFTHVMHLAAQAGVRYAMKNPASYVHSNIAGLVTLLEACKSADPQPAVVWASSSSVYGLNTKVPFSEFHRTDRPASLYAATKKAGEEIAHTYNHIYGLSITGLRFFTVYGPWGRPDMAYFFFTNDLLNGKPITIFEGPKGESVARDFTYIDDIVQGCIGALDTAKKSTGTGGKKRGPAQLRVYNLGNTSPVPVTELVTILERLLKVKANKKVVKMPANGDVQFTHANISLAQRELGYHPTTDLKTGLKRFVRWYIEYYNPPGVASLTKKSARSNSS", "values": [{"measurement": "Km", "result": "170 ± 70", "unit": "µM"}]}]}
